A word on the Kd: it is the constant that tells how readily two partners part at equilibrium. Low readings indicate tighter binding, high ones weaker binding. The EC50 is the midpoint of the concentration-response curve.

The text below walks through data of US20180057589A1.

Assay [1] has as its target hamster Notch2, endogenous on K1-CHO cells (hamster). Description: FACS dot plot α-Myc (PE) against α-NRR1 (FITC), untransfected K1-CHO cells, +Dox, panel 1 (other quadrants: upper left 0.15, upper right 0.034, lower left 99.7).
Assay [2] has the same target. Briefly: FACS dot plot α-Myc (PE) against α-NRR1 (FITC), untransfected K1-CHO cells, -Dox, panel 4 (other quadrants: upper left 0.13, upper right 0.041, lower left 99.7).
The target of assay [3] is Notch1 on stably transfected NIH-3T3 cells. Description: cell-based or functional assay.
The target in assay [4] is mouse Notch1 NRR protein (mouse) (UniProt Q01705). Briefly: SPR. Background: Surface plasmon resonance follows binding to a sensor surface in real time, without labels.
Sequence of mouse Notch1 NRR protein (mouse) (Q01705 1446-1723 limits assumed): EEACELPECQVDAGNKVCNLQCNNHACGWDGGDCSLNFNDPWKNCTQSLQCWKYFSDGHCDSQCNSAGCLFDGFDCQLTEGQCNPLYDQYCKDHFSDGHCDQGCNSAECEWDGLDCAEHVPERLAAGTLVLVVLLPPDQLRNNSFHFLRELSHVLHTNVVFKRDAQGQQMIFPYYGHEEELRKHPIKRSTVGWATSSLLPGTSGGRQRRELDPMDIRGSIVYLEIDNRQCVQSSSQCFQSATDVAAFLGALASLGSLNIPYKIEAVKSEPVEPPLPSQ
In assay [5] the target is human Notch1 NRR protein (human) (UniProt P46531). Briefly: SPR.
Sequence of human Notch1 NRR protein (human) (P46531 1446-1733 limits assumed): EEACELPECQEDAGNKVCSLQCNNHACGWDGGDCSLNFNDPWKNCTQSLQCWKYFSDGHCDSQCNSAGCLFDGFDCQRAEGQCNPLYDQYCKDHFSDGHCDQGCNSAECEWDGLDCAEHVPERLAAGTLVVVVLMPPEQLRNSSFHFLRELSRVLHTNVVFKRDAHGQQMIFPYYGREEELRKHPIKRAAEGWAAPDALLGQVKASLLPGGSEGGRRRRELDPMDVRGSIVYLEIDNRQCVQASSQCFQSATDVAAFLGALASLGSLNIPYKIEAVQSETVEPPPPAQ
Assay [6] deals with N-myc-Notch2 on K1-CHO cells. Briefly: FACS dot plot α-Myc (PE) against α-NRR1 (FITC), K1-CHO myc-N2 cells, +Dox, panel 3 (other quadrants: upper left 58.6, lower left 41.3, lower right 0.026).
The target of assay [7] is N-myc-Notch2 on K1-CHO cells. Description: FACS dot plot α-Myc (PE) against α-NRR1 (FITC), K1-CHO myc-N2 cells, -Dox (leaky expression per the text), panel 6 (other quadrants: upper left 18, lower left 81.8, lower right 0.1).
Assay [8] concerns the target N-myc-Notch1 on K1-CHO cells. Description: FACS dot plot α-Myc (PE) against α-NRR1 (FITC), K1-CHO myc-N1 cells, -Dox (transgene not induced), panel 5 (other quadrants: upper left 0.72, lower left 99, lower right 0.14).
Assay [9] addresses mouse Notch1 NRR protein (mouse) (UniProt Q01705). Briefly: ELISA on captured Flag-tagged NRR protein.
Assay [10] addresses human Notch1 NRR protein (human) (UniProt P46531). Briefly: ELISA on captured Flag-tagged NRR protein. In general terms: An ELISA detects its analyte on a solid surface through an enzyme-linked reagent.
For assay [11], the target named is N-myc-Notch1 on K1-CHO cells. Briefly: FACS dot plot α-Myc (PE) against α-NRR1 (FITC), K1-CHO myc-N1 cells, +Dox, panel 2 (other quadrants: upper left 17.1, lower left 26.2, lower right 0.077).

Take anti-NRR1 (antibody): the % of cells in the α-Myc-negative / α-NRR1-positive quadrant (lower right) in [1] amounted to 0.082%; in assay [2], 0.12%. In [3], this substance gave a Notch reporter (luciferase) in Jag1 co-culture assay: antibody concentration for complete inhibition of Notch1 signaling of 80 to 400 ng/mL. For the same substance, the dissociation constant Kd in [4] and in assay [5] was 3 nM throughout. Further, the % of cells in the α-Myc-positive / α-NRR1-positive quadrant (upper right) came to 0.064% in [6], 0.13% in assay [7], 0.097% in assay [8] and 56.6% in [11]. Further, the concentration for a half-maximal effect (EC50) in assay [9] and in [10] was 0.1 mg/L in each case.
